The values that follow come from article PMC9835228 (Journal of Translational Medicine, 2023).

Data set [1] has as its target HER2 protein (Homo sapiens, UniProt P04626). Put plainly: Surface plasmon resonance of peptides toward HER2 protein. It counts as binding. Background: SPR reads the build-up and loss of mass on a sensor chip optically.
The nature of another data set: in vivo. The conditions noted are these: female, NOD SCID, mouse, tumor (SK-BR-3 xenograft), iv, 0.37 MBq, total radioactivity.
The target in data set [2] is HER2 on SK-BR-3 cells (HER2-positive human breast cancer cell line) (human (endogenous in SK-BR-3)) (UniProt P04626).
Data set [3] deals with T1, HER2 protein (human, UniProt P04626 23-652).
T1 construct: human epidermal growth factor receptor 2 (HER2), soluble protein used as SPR analyte; also called human epidermal growth factor receptor 2
Put plainly: SPR; Plexera PlexArray HT; sulfhydryl peptides printed on a bare gold chip through the cysteine thiol, blocked with 5% nonfat milk; protein flowed over in PBS (HER2 at 70.4, 35.2, 17.6 and 8.8 nM); regeneration 0.5% H3PO4; EGFR, HER3 and HER4 as controls with the same procedure. The conditions noted are these: both partners purified.

Values joined by “and” are separate entries in the source; they are usually repeats but may differ in a detail not shown here. Equal values may be shown once. Read-outs that look alike come from different tables or passages of the source. Residues, ends and D or L forms follow the SMILES beside them.

Procedure for in vivo: The animals were randomly chosen for in vivo assays when the tumor size reached 100–150 mm^3 (1–2 weeks after inoculation).
Each mouse was injected with 0.37 MBq (~ 0.03 µg) of tracer to evaluate the distribution of the probe in tumors and major organs (4 mice/group). The mice were sacrificed and dissected at 0.5, 1 and 2 h p.i. Blood, tumor, liver, kidney and other major organs were collected and weighed, and their radioactivity was counted in a Wallac 1480 γ-counter (Perkin-Elmer, Waltham, MA). […] All biodistribution data are presented as the percentage of injected dose per gram of tissue (%ID/g).

The Kd is the equilibrium constant for the complex coming apart. For `CC(C)C[C@@H](NC(=O)[C@@H](CCCNC(=N)N)NC(=O)[C@@H](CC(C)C)NC(=O)[C@@H](CCC(=O)O)NC(=O)[C@@H](Cc1c[nH]c2ccccc12)NC(=O)[C@@H](CC(N)=O)NC(=O)[C@@H](CCCNC(=N)N)NC(=O)CCCCCCCNC(=O)CC[C@H](N)C(=O)NCCCCCCCC(=O)N[C@H](CCCNC(=N)N)C(=O)N[C@H](CC(N)=O)C(=O)N[C@H](Cc1c[nH]c2ccccc12)C(=O)N[C@H](CCC(=O)O)C(=O)N[C@H](CC(C)C)C(=O)N[C@H](CCCNC(=N)N)C(=O)N[C@H](CC(C)C)C(=O)N[C@H](CCCCN)C(=O)O)C(=O)N[C@H](CCCCN)C(=O)O` [Ark2], the equilibrium dissociation constant (Kd) on HER2 protein [1] (read-out: dissociation constant (KD) to HER2 protein, SPR, Plexera PlexArray HT, Cys-peptides printed on gold chip, HER2 protein 8.8-70.4 nM in PBS, from fitted association/dissociation rates) was 0.01 µM.

On to `CC(C)C[C@H](NC(=O)[C@H](CCCNC(=N)N)NC(=O)[C@H](CC(C)C)NC(=O)[C@@H](N)CCCCN)C(=O)N[C@@H](CCC(=O)O)C(=O)N[C@@H](Cc1c[nH]c2ccccc12)C(=O)N[C@@H](CC(N)=O)C(=O)N[C@@H](CCCNC(=N)N)C(=O)O` [H10F] (H-KLRLEWNR-OH), for which the Kd at HER2 protein [1] was 0.07 µM and 0.0702 µM.

Usually tissue uptake stands for the percentage of the injected dose found per gram of tissue. Take `CC(C)C[C@@H](NC(=O)[C@@H](CCCNC(=N)N)NC(=O)[C@@H](CC(C)C)NC(=O)[C@@H](CCC(=O)O)NC(=O)[C@@H](Cc1c[nH]c2ccccc12)NC(=O)[C@@H](CC(N)=O)NC(=O)[C@@H](CCCNC(=N)N)NC(=O)CCOCCOCCOCCOCCNC(=O)c1ccc(NN=Cc2ccccc2S(=O)(=O)O)nc1)C(=O)N[C@H](CCCCN)C(=O)O` [^99mTc-HP-rk, metal not drawn]: in the data set “in vivo”, the tissue uptake at 0.5 h stood at 1.94 ± 0.12 %ID/g. In data set [2], “^99mTc-HP-Ark2, ^99mTc-{HYNIC-PEG4-Glu[8-aminooctanoic-D(RNWELRLK)]2/Tricine/TPPTS} (peptide)” gave a tumor uptake in the SK-BR-3 tumor model at 0.5 h p.i. (biodistribution, n = 4) of 3.99 %ID/g and a tumor uptake in the SK-BR-3 tumor model at 0.5 h p.i. with coinjection of excess cold rk peptide (blocking group, n = 4) of 1.42 %ID/g.

B1: Cys-H10F (sulfhydryl form of the L-peptide H10F, KLRLEWNR) (peptide)
peptide: KLRLEWNR
notes: HER2-targeting L-peptide H10F; also called parental L-peptide; source: synthetic peptide, bought: GL Biochem Ltd
As to B1, the Kd with HER2 protein [3] was determined as 0.0702 µM.
